The text below walks through data of the supplement of paper PMC12455559.

± gives the standard deviation of the averaged measurements.

Series [1] can be described thus: melting temperature (DSF); higher = more thermostable. In outline: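 Candidate enzymes were expressed in E. coli C41(DE3), purified on nickel beads and released by SUMO protease cleavage. For differential scanning fluorimetry, 45 μL enzyme (0 to 0.3 mg/mL) was mixed with 5 μL 5X Sypro Orange in sealed PCR plates on a Bio-Rad CFX96 instrument. Fluorescence was read from 25 °C in steps of 0.3 °C per cycle (ramp 0.3 °C/s) for 250 cycles. The read-out is melting temperature.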

Series [2] can be described thus: purified protein yield per well (BCA); higher = higher soluble expression. In a few lines: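 Candidate enzymes were produced in E. coli C41(DE3) grown in 2 mL autoinduction cultures containing 100 µg/mL kanamycin, first at 37 °C for 2 h and then at 18 °C for 40 h. After cell lysis, protein was captured on Ni-charged magnetic beads and freed by SUMO protease cleavage on an OT-2 robot. Purified protein yield per well was read with the Pierce Rapid Gold BCA kit. Values under 25 ug (0.1 mg/mL) fall below the detection threshold.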

Series [3] can be described thus: PET hydrolysis, aromatic products released after 48 h (umol product/mg enzyme); higher = more PET depolymerization activity. In a few lines:
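The measure of PET hydrolysis activity is aromatic product released into the supernatant, given per mg enzyme. Nickel-purified, SUMO-cleaved enzyme without tag was added at 5 μg (50 μL) to 3.5 mg amorphous PET film or crystalline PET powder in 450 μL of citrate, phosphate or glycine buffer spanning pH 4.5 to 8.5. After 48 h at 40 or 60 °C in sealed plates without shaking, absorbance at 260 and 280 nm was taken against buffer blanks.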

Where [4] appears, read: substrate: aFilm, 40 °C, pH 4.5.
Where [5] appears, read: substrate: aFilm, 40 °C, pH 5.5.
Setting [6] is: substrate: aFilm, 40 °C, pH 6.5.
Where [7] appears, read: substrate: aFilm, 40 °C, pH 7.5.
The mark [8] stands for this setting: substrate: aFilm, 60 °C, pH 4.5.
Setting [9] is: substrate: aFilm, 60 °C, pH 5.5.
Where [10] appears, read: substrate: aFilm, 60 °C, pH 6.5.
Setting [11] is: substrate: aFilm, 60 °C, pH 7.5.
Setting [12] is: substrate: cryPow, 40 °C, pH 4.5.
[13] abbreviates: substrate: cryPow, 40 °C, pH 5.5.
The mark [14] stands for this setting: substrate: cryPow, 40 °C, pH 6.5.
Setting [15] is: substrate: cryPow, 40 °C, pH 7.5.
The mark [16] stands for this setting: substrate: cryPow, 60 °C, pH 4.5.
Setting [17] is: substrate: cryPow, 60 °C, pH 5.5.
Where [18] appears, read: substrate: cryPow, 60 °C, pH 6.5.
[19] abbreviates: substrate: cryPow, 60 °C, pH 7.5.

As for “ADNPYQRGPDPTAESVRASRGTFATTQVTVPAGNGFGGGVIYHPTDTSQGTFGAVAIVPGYTATWAAEGAWMGHWLASFGFVVIGVDTINRNDWDTARGTQLLAALDYLTQQSPVRNRVDASRAAVMGHSMGGGGAMSAALRRPSLKAAVGLAPFSPSQNLTNTRVPTMLIAGQNDGTTTPASISTLYNGIPASTESAYLEFAGAGHGFPTSNNPLMMRVVIPWLKIFVDNDTRYSQFLCPLTDRTGITQYRSTCPLTPPGAPTSPPTTTAPPTPTTSPSVTPSTSPSATPTTPAPDGACRATYRTTNSWPGGYQAEVTVTAGNSPINGWTVRWTLGSGQSISQVWNGTLTTSGSAVTVRNVSYNGSLQPGTSTTFGFIGGGTPSTPVLACVSP [ESM018]”, in series [1], the melting temperature turned out to be 61.3 C. In addition, the “purified protein yield per well” value in series [2] was found to be 530 µg. Further, the PET hydrolysis in series [3] (setting [4]), in series [3] (setting [5]), in series [3] (setting [6]), in series [3] (setting [7]), in series [3] (setting [8]) and in series [3] (setting [9]) was under 3 throughout. For the same sequence, the PET hydrolysis in series [3] (setting [10]) was under 3; in series [3] (setting [11]), under 3; in series [3] (setting [12]), under 3; in series [3] (setting [13]), 3; in series [3] (setting [14]) it was 11 ± 1.4; in series [3] (setting [15]) it was 30 ± 1.4. In addition, the PET hydrolysis in series [3] (setting [16]) is under 3; in series [3] (setting [17]) it was under 3; in series [3] (setting [18]), 7 ± 9.9; in series [3] (setting [19]), under 3.

With “ADNPYQRGPDPTLASVAANRGTFATAQLSVPGDGFGSGVIYYPTDTSQTFGAVAIVPGYSALFSVEEAWMGHWLASFGFVVIGIETISRSDSADARATQLLAALDYLTQRSSVRSRVDASRLSIIGHSAGGAGVLTAVLRRPTLKAAVGLAPGSPVGNYNLSSDRVPTMFISGQRDTTVSQSYLNGIYPTIPASTPSAWVELTGGDHLFPTRANTNMMRVLIPWLKIFVDNDTRYTQFLCPLMDSSGISMYRNKCPYVPTSPSPSPSTSPSPSVSPSPSPSASPSPSPSPSTSPSPQPSGACSATYRTVNSWSGGYQAEVTVTAGSSAINRWSVRWTLSSGQSISQVWNGTLSAGGSSVTVANASYNGSLPASGTTTFGFLANGAPSTPTLTCTSP [ESM034]”, the melting temperature in series [1] was 59.8 C. The “purified protein yield per well” value in series [2] is 392 µg. The PET hydrolysis in series [3] (setting [4]), in series [3] (setting [5]), in series [3] (setting [6]), in series [3] (setting [7]), in series [3] (setting [8]) and in series [3] (setting [9]) was under 3 each time. For the same sequence, the PET hydrolysis in series [3] (setting [10]), in series [3] (setting [11]), in series [3] (setting [12]), in series [3] (setting [13]), in series [3] (setting [14]) and in series [3] (setting [15]) was under 3 in each case. In addition, the PET hydrolysis in series [3] (setting [16]), in series [3] (setting [17]), in series [3] (setting [18]) and in series [3] (setting [19]) was under 3 throughout.

In turn, “ADNPYQRGPDPTLASVAASRGPFATTQATVPPGNGFNGGYVYYPTDTSLGTWGAVAIVPGYSALFANEEAWMGPWLASFGFVVLGIETNSRNDGADARATQLLAALDYLTQSSPVRNRVDPNRLSVMGHSAGGAGTLMAALRRPSLKTAVGLAPGAPGNSLNMSTTKVPTMLISGQNDGTVTPSYVQGIYNTLPASVEHAWAELAGNDHLSFTRPNPTEMRILIPWLKIFLDNDTRYTQFLCPLADSTGVSRYNSTCPLVPPGVPTSPPTTPPTSTPPPTGPPTSPPPPTTTPPPAGGACTATYRTVGSWSGGFQGEVTVTAGSAAINGWTVRLDLGGGQSISQVWNGTLSTSGSTATVRNVSYNGSLAAAGSTTFGFLGSGTPPAPTPTCTSP [ESM005]” displayed a melting temperature in series [1] of 67 C. For the same sequence, the “purified protein yield per well” value in series [2] was 88.4 µg. The PET hydrolysis in series [3] (setting [12]), in series [3] (setting [13]), in series [3] (setting [14]), in series [3] (setting [15]), in series [3] (setting [16]) and in series [3] (setting [17]) was under 3 each time. Moreover, the PET hydrolysis in series [3] (setting [18]) and in series [3] (setting [19]) was under 3 throughout.

“ADNPYQRGPDPTLASVAASRGTFATAQVNVPGGNGFASGVIYYPTDTTQGTFGAVAIVPGYSALFANEEAWMGPWLASFGFVVIGIETNSRTDSADARGTQLLAALDYLTQRSPVRDRVDPNRLSVVGHSAGGAGVLSAVVRRPSLKAAIGLAPGSPVGNYDLSTAKVPTMFISGQRDTTVTQSYLNGLYSTIPAALPSAWVEIAGVDHLFATRANNTEMRVLIPWLKIWLDNDTRYPQFLCPLMDSTNISMYRNKCPYVPPGGGPSPSPSATPSPSVTPSPSPSPSPSPSPSPSPTPTPGACTATYRTVNSWGGGYQGEVTVKAGASAVNGWTVRWTLNAGQTVSQVWNGTLSTSGSSVTVKNASYNGSLPPAGTTVFGFLANGTPATPALTCASP [ESM009]”: the melting temperature in series [1] came out at 58.6 C. Besides, the “purified protein yield per well” value in series [2] amounted to 358 µg. For the same sequence, the PET hydrolysis in series [3] (setting [12]), in series [3] (setting [13]), in series [3] (setting [14]), in series [3] (setting [15]), in series [3] (setting [16]) and in series [3] (setting [17]) was under 3 in each case. Also, the PET hydrolysis in series [3] (setting [18]) and in series [3] (setting [19]) was under 3 in each case.

“ADNPYQRGPDPTLASVSAQRGTFATAQVAVPAGDGFGGGMIYYPTDTSQGTFGAVAIVPGYTARFSVEEAWMGHWLASFGFVVIGVETNSTNDFDTARGTQLLAALDYLTQRSSVRDRVDASRQSVVGHSMGGGGALYAAGQRASLKAAVGLAPYKPSGNPTNVRVPTMIISGQNDTVVTPSYATGLYNTLPATTESAYMEFTGADHLFPTRANTLEMRILIPWLKIFVDSDNRYSQFLCPLQDSTGIRGYRSTCPFLPNPTTSPSTTAPTTPPTTPPTTPPTGACSATYRTVNSWPGGFQGEVTVSAGSTPVDGWAVRWTLASGQAVTQVWNGALSVSGSAVTVRNTTYNGSLGANASTTFGFLASGSPTPVSLTCTSP [ESM033]” had a melting temperature in series [1] of 53.8 C. Further, the “purified protein yield per well” value in series [2] stood at 594 µg. The PET hydrolysis is 9 in series [3] (setting [12]); 25 in series [3] (setting [13]); 35 in series [3] (setting [14]); 6 in series [3] (setting [15]); under 3 in series [3] (setting [16]); under 3 in series [3] (setting [17]). In addition, the PET hydrolysis in series [3] (setting [18]) and in series [3] (setting [19]) was under 3 throughout.
